Experimental findings from US20200223910A1 (STERLING IP, published 2020) are described below.

The target in assay [1] is T1, human TNR rCd4-His-FBG (rat; human, UniProt P05540 209-391; Q92752 1128-1358, limits assumed).
T1 construct: domain: domains 3 and 4;domain: FBG; also called Hu TNR; hTNR; not shown: 6His tag
T1 sequence (chain (part 1 of 2), looked up): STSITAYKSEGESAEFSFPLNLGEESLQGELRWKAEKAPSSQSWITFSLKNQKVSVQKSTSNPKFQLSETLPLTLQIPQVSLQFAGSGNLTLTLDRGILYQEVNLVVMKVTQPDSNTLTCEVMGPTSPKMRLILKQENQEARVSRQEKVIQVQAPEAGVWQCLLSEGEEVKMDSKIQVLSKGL
T1 sequence (chain (part 2 of 2), looked up): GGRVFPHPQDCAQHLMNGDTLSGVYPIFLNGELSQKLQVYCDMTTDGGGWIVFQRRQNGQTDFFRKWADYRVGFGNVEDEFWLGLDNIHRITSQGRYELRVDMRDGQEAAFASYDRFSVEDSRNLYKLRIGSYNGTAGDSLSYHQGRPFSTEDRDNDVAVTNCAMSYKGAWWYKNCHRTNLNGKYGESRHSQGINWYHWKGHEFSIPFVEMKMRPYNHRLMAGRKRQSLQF
Nature of the assay: SPR, 37 C, purified IgG4 captured on anti-human Fc. On the procedure: (§1) Detailed kinetic parameters were evaluated for the 9 prioritised IgG4 antibodies. Binding characteristics were determined for interaction with human, […] TNC rCD4-His-FBG, and human TNR rCD4-His-FBG. Kinetic assays followed essentially the same protocols as for the off-rate determinations described above, with some modifications as follows. To improve the accuracy of kinetic parameter determination, anti-human Fc IgG was immobilised at lower levels (2229 RU), resulting in a corresponding reduction in the amount of anti-FBG IgG4 captured. Purified anti-FBG IgG4 was diluted to a concentration of 3.5 nM in PBS, pH 7.4, 0.05% Tween-20 and injected into FC2 at a flow rate of 10 μl/min, 60 s contact time. […] Antigens were prepared by doubling dilution in PBS, pH 7.4, 0.05% Tween-20 (highest concentration 100 nM except mouse rCD4-His-FBG which was 7 nM). Assays were performed at 37° C. (30 μl/min, 120 s contact time; mouse rCD4-His-FBGFBG 10 μl/min, 60 s contact time), with both the flow cell and injection chamber equilibrated to this temperature. As before, kinetic parameters were determined by reference cell subtraction and fitting the sensogram experimental data assuming a 1:1 interaction using BIAevaluation software (GE, BR-1005-97).
A general note: SPR reads the build-up and loss of mass on a sensor chip optically.

Assay [2] has as its target T2, human TNC rCd4-His-FBG (rat; human, UniProt P05540 209-391; P24821 1974-2201, limits assumed).
T2 construct: domain: domains 3 and 4;domain: FBG; C-terminal FBG fusion made in HEK293F cells; biotinylated in the ELISA and HTRF assays; also called Hu TNC; hTNC; not shown: 6His tag
T2 sequence (chain (part 1 of 2), looked up): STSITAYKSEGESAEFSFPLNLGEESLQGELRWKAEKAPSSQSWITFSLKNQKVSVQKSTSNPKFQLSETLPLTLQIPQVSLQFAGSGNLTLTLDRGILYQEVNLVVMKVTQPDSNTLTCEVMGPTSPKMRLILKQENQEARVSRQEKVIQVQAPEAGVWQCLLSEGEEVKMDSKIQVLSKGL
T2 sequence (chain (part 2 of 2), looked up): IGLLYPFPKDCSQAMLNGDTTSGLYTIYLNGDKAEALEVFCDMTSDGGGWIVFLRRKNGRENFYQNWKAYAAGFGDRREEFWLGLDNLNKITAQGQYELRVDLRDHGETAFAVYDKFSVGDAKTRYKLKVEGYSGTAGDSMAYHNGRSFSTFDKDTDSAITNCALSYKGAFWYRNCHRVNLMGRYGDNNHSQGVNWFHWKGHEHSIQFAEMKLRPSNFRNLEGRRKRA
In words: SPR BIAcore T200, 37 C, IgG4 captured on anti-human Fc, rCd4-His-FBG injected, 1:1 fit. On the procedure: (§2) For the kinetic assay ˜1,500-1,900 response units (RU) of anti-human Fc IgG (GE, BR-1008-39) was immobilised in all flow-cells (FC1-4) on a Series S CM5 sensor chip (BR-1005-30) using EDC/NHS cross-linking chemistry according to the amine coupling kit protocol (GE, BR-1000-50). […] Antibody capture levels ranged typically from 70 RU (for TNR interactions) to 90 RU (for TNC interactions).
(§3) A 1:1 dilution series of antigen in HBS-P+ (30 nM of human and mouse TNC rCd4-His-FBG and 480 nM of human TNR rCd4-His-FBG) was injected with a flow-path via the reference flow cell (FC1 and FC3, respectively) and the antibody capture flow cell (FC2 and FC4, respectively) with a flow rate of 30 μl/min. The association and dissociation phases were measured over a 3.5 and 30 min time period, respectively, for human and mouse TNC rCd4-His-FBG, and 2 and 8 min time period for human TNR rCd4-His-FBG. For interaction analysis with human and mouse TNC rCD4-His-FBG regeneration of free capture antibody surfaces after each antigen injection was done by injection of 3 M MgCl 2 for 60 s and for each sample injection a fresh NSCT antibody was captured. Carry over of antigen was prohibited by an extra needle wash step with 50% DMSO before every injection. Runs were performed at the more physiologically relevant temperature of 37° C.
(§4) Kinetic parameters were determined by reference cell subtraction and fitting the sensorgram experimental data to a 1:1 interaction model using the BIAcore T200 Evaluation software version 2.0.

Assay [3] has as its target T3, mouse TNC rCd4-His-FBG (rat; mouse, UniProt P05540 209-391; Q80YX1 1883-2110, limits assumed).
T3 construct: domain: domains 3 and 4;domain: FBG; Biotinylated in the capture ELISA; also called Mu TNC; mTNC; not shown: 6His tag
T3 sequence (chain (part 1 of 2), looked up): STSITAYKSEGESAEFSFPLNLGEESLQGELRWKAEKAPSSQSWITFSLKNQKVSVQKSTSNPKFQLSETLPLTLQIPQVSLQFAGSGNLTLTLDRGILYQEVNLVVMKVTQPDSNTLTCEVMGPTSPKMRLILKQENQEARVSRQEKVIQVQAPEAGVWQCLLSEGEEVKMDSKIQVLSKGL
T3 sequence (chain (part 2 of 2), looked up): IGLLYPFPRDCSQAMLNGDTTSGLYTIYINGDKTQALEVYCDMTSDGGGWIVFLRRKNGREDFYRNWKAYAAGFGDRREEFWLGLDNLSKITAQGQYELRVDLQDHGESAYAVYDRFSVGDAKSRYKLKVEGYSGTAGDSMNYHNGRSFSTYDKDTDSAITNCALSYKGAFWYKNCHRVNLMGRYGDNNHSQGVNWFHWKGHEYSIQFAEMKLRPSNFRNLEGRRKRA
The description is as above. On the procedure: as §2, §3, §4

Assay [4] concerns the target T1, human TNR rCd4-His-FBG. The description is as above. How it is done: as §2, §3, §4
Assay [5] addresses T2, human TNC rCd4-His-FBG. Nature of the assay: SPR BIAcore T200, 37 C, IgG4 captured on anti-human Fc, rCd4-His-FBG injected, 1:1 fit; relative to theoretical Rmax. On the procedure: as §2, §3, §4
Assay [6] addresses T3, mouse TNC rCd4-His-FBG. Described as above. How it is done:
as §2, §3, §4

The target in assay [7] is T1, human TNR rCd4-His-FBG. The description is as above. On the procedure:
as §2, §3, §4

In assay [8] the target is T2, human TNC rCd4-His-FBG. In words: SPR, 37 C, purified IgG4 captured on anti-human Fc. On the procedure:
as §1

A value given as a limit tells only on which side of the number the result lay.

B1: IgG4 165_13_C3 (antibody, V domains shown)
VH: QVQLVESGGGLVQPGRSLRLSCAASGFTFDDYAMHWVRQAPGKGLEWVSGISGSGGSTYYADSVKGRFTISRDNAKNSLYLQMNSLRAEDTALYYCAKSYQSDEDAFDIWGQGTMVTVSS
VL: DIQMTQSPASLPTPVGDRVTITCRASQYIQGFLNWYQQKPGKAPKLLIYDASNLETGVPSRFSGSGSGTDFTLTISSLQPEDFATYYCQQSYSTPQTFGQGTKVDIKR
notes: Human IgG4 with hinge modification S241P; also called MAb C3; C3 Mab
Take B1: the “fold lower affinity than to human TNC FBG” value with human TNR rCd4-His-FBG [1] is above 70 fold. Further, the results for the Kd with human TNC rCd4-His-FBG [2], in the assay with mouse TNC rCd4-His-FBG [3] and with human TNR rCd4-His-FBG [4] were 1.24 nM, 0.433 nM and 52.7 nM, respectively. The koff (in general, a measure of how fast the partners let go of each other) with human TNC rCd4-His-FBG [2] came to 0.0042 s⁻¹; with mouse TNC rCd4-His-FBG [3], 0.004 s⁻¹; with human TNR rCd4-His-FBG [4], 0.059 s⁻¹. Further, the kon – broadly, the second-order rate constant of association – with human TNC rCd4-His-FBG [2] came out at 3.4e+06 M⁻¹ s⁻¹; in the assay with mouse TNC rCd4-His-FBG [3], 9.27e+06 M⁻¹ s⁻¹; with human TNR rCd4-His-FBG [4], 1.13e+06 M⁻¹ s⁻¹. Further, the figures for the “SA, surface activity” value with human TNC rCd4-His-FBG [5], in the assay with mouse TNC rCd4-His-FBG [6] and with human TNR rCd4-His-FBG [7] were 298%, 303% and 184%, respectively.

B2: 160_01_A4 IgG4 (antibody, V domains shown)
VH: EVRLVQSGAEVKKPGASVKVSCKVSGYTLTELSMHWVRQAPGKGLEWMGGFDPEDGETIYAQKFQGRVTMTEDTSTDTAYMELSSLRSEDTAVYYCATAQKETLGNAIWGQGTLVTVSS
VL: DIQMTQSPASLPTSVGDRVTITCRASQYIQGFLNWYQQKPGKAPRLLIYAASTLQDGVPSRFSGSGYGTDFTLTISSLQPEDFATYYCQQSYSTPWTFGQGTKVEIKR
Regarding B2, in the assay with human TNC rCd4-His-FBG [8], the Kd (commonly the constant that tells how readily two partners part at equilibrium) was below 1 nM. Besides, the “fold lower affinity than to human TNC FBG” value in the assay with human TNR rCd4-His-FBG [1] is above 70 fold.

B3: IgG4 165_13_C3* (antibody, V domains shown)
VH: QVQLVESGGGLVQPGRSLRLSCAASGFTFDDYAMHWVRQAPGKGLEWVSGISGSGGSTYYADSVKGRFTISRDNAKNSLYLQMNSLRAEDTALYYCAKSYQSDEDAFDIWGQGTMVTVSS
VL: DIQMTQSPSSLSASVGDRVTITCRASQYIQGFLNWYQQKPGKAPKLLIYDASNLETGVPSRFSGSGSGTDFTLTISSLQPEDFATYYCQQSYSTPQTFGQGTKVDIKR
notes: Hinge-modified IgG4 (S241P); neither is tied by name to C3* as tested; also called NSCT-141
As for B3, the Kd in the assay with human TNC rCd4-His-FBG [2] came out at 0.443 nM; with mouse TNC rCd4-His-FBG [3], 0.67 nM; with human TNR rCd4-His-FBG [4] it was 53.1 nM. The values for the koff in the assay with human TNC rCd4-His-FBG [2], with mouse TNC rCd4-His-FBG [3] and in the assay with human TNR rCd4-His-FBG [4] were 0.0041 s⁻¹, 0.0042 s⁻¹ and 0.058 s⁻¹, respectively. Also, the kon was 9.35e+06 M⁻¹ s⁻¹ with human TNC rCd4-His-FBG [2], 6.28e+06 M⁻¹ s⁻¹ with mouse TNC rCd4-His-FBG [3] and 1.11e+06 M⁻¹ s⁻¹ in the assay with human TNR rCd4-His-FBG [4]. For the same molecule, the “SA, surface activity” value with human TNC rCd4-His-FBG [5] turned out to be 297%; with mouse TNC rCd4-His-FBG [6] it was 304%; with human TNR rCd4-His-FBG [7], 233%.
